Test results as given in the supplement of paper PMC7125110.
± gives the standard error. For some assays here: Variants at the floor of the assay were thinned out.

B1: glmS ribozyme (parent)
chain: AUAAAAGCGCCAGAACUACAGAAAUGUAGUUGACGAGGAGGAGGUUUAUCGAAUUUUCGGCGGAUGCCUCCAAA

Columns and labels:
Settings in all cases: with glucosamine-6-phosphate
glucosamine-6-phosphate [1] = variants of: B1; assay: kcat; higher = faster cleavage; RNA array
Outline: (§1)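 The measurements used barcoded ribozyme variants on sequenced MiSeq chips, transcribed in situ by E. coli RNA polymerase and tracked at 37 °C with a hybridised Cy3 probe. Glucosamine-6-phosphate, 40 μM to 10 mM in HEPES/KCl/Mg(OAc)2 buffer, was flowed in while tiles were imaged over ~14 h. Baseline-normalised signals, also normalised to non-cleaving reference variants, gave per-tile medians that were fit to one- or two-exponential decays for kobs. kcat and KM resulted from weighted Michaelis–Menten fits across concentrations.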

glucosamine-6-phosphate [2] = variants of: B1; assay: self-cleavage kobs at 40 uM GlcN6P; higher = faster cleavage; RNA array
Outline: as §1

glucosamine-6-phosphate [3] = variants of: B1; assay: self-cleavage kobs at 160 uM GlcN6P; higher = faster cleavage; RNA array
Outline: as §1

glucosamine-6-phosphate [4] = variants of: B1; assay: self-cleavage kobs at 640 uM GlcN6P; higher = faster cleavage; RNA array
Outline: as §1

glucosamine-6-phosphate [5] = variants of: B1; assay: self-cleavage kobs at 2500 uM GlcN6P; higher = faster cleavage; RNA array
Outline: as §1

glucosamine-6-phosphate [6] = variants of: B1; assay: KM; higher = weaker cofactor use; RNA array
Outline: as §1

glucosamine-6-phosphate [7] = variants of: B1; assay: self-cleavage kobs at 10000 uM GlcN6P; higher = faster cleavage; RNA array
Outline: as §1

| Variant | kcat (glucosamine-6-phosphate [1]) | self-cleavage kobs at 40 uM GlcN6P (glucosamine-6-phosphate [2]) | self-cleavage kobs at 160 uM GlcN6P (glucosamine-6-phosphate [3]) | self-cleavage kobs at 640 uM GlcN6P (glucosamine-6-phosphate [4]) | self-cleavage kobs at 2500 uM GlcN6P (glucosamine-6-phosphate [5]) | KM (glucosamine-6-phosphate [6]) | self-cleavage kobs at 10000 uM GlcN6P (glucosamine-6-phosphate [7]) |
| --- | --- | --- | --- | --- | --- | --- | --- |
| G29A A64C | < 1e-05 s⁻¹ | < 1e-05 s⁻¹ | < 1e-05 s⁻¹ | – | – | – | – |
| G21A C58G U69G C71U | 4e-05 ± 1e-05 s⁻¹ | – | 5.48e-05 ± 1.6e-05 s⁻¹ | 4.19e-05 ± 1.7e-05 s⁻¹ | 3.42e-05 ± 1.6e-05 s⁻¹ | – | – |
| C16U U54G | 0.0201 ± 0.0063 s⁻¹ | 0.000682 ± 0.00011 s⁻¹ | 0.00138 ± 0.00023 s⁻¹ | 0.00575 ± 0.00092 s⁻¹ | 0.0115 ± 0.0019 s⁻¹ | 1720 ± 730 µM | 0.0185 ± 0.0042 s⁻¹ |
| G29A U49G | 6e-05 ± 8e-06 s⁻¹ | – | – | 4.72e-05 ± 1.7e-05 s⁻¹ | 4.32e-05 ± 1.4e-05 s⁻¹ | – | 6.26e-05 ± 1.1e-05 s⁻¹ |
| C16A U30A | 0.00139 ± 0.00047 s⁻¹ | 3.95e-05 ± 8.3e-06 s⁻¹ | 0.000164 ± 3e-05 s⁻¹ | 0.000316 ± 5.7e-05 s⁻¹ | 0.00154 ± 0.00022 s⁻¹ | – | 0.00109 ± 0.00017 s⁻¹ |
| C16U C61G | < 1e-05 s⁻¹ | – | – | – | – | – | – |
| C16G G66A | 0.00183 ± 0.0004 s⁻¹ | 7.41e-05 ± 1.1e-05 s⁻¹ | 0.000199 ± 5.6e-05 s⁻¹ | 0.000593 ± 8.9e-05 s⁻¹ | 0.00111 ± 0.00019 s⁻¹ | 1140 ± 380 µM | 0.00218 ± 0.00038 s⁻¹ |
| C16U G37C | 1.3e-05 ± 3e-06 s⁻¹ | < 1e-05 s⁻¹ | – | – | – | – | – |
| C16G C61U C67U | < 1e-05 s⁻¹ | < 1e-05 s⁻¹ | < 1e-05 s⁻¹ | – | – | – | < 1e-05 s⁻¹ |
| A15U U65C | 5.03e-05 ± 3.5e-06 s⁻¹ | – | – | 4.42e-05 ± 1.2e-05 s⁻¹ | 4.8e-05 ± 8.3e-06 s⁻¹ | – | 4.61e-05 ± 1.5e-05 s⁻¹ |
| C16U A42U A64G | 0.000175 ± 4.3e-05 s⁻¹ | – | – | – | 7.15e-05 ± 1.6e-05 s⁻¹ | – | 0.000122 ± 2.6e-05 s⁻¹ |
| C16G U54C | 0.00528 ± 0.0015 s⁻¹ | 9.28e-05 ± 1.6e-05 s⁻¹ | 0.000157 ± 5.6e-05 s⁻¹ | 0.000745 ± 0.00019 s⁻¹ | 0.00247 ± 0.00064 s⁻¹ | 3350 ± 1400 µM | 0.00397 ± 0.00058 s⁻¹ |
| C16U G32U U69A | 9.39e-05 ± 2e-05 s⁻¹ | – | – | 9.19e-05 ± 1.8e-05 s⁻¹ | – | – | 0.000104 ± 1.9e-05 s⁻¹ |
| C16U G63A | < 1e-05 s⁻¹ | < 1e-05 s⁻¹ | – | – | < 1e-05 s⁻¹ | – | < 1e-05 s⁻¹ |
| C16U U47G A52U | 0.000133 ± 8.3e-06 s⁻¹ | – | – | 4.73e-05 ± 1.3e-05 s⁻¹ | 8.23e-05 ± 2.3e-05 s⁻¹ | 1230 ± 200 µM | 0.000122 ± 2.5e-05 s⁻¹ |
| C16A U54A | 0.0017 ± 0.00051 s⁻¹ | 5.13e-05 ± 1.3e-05 s⁻¹ | 0.000136 ± 2.6e-05 s⁻¹ | 0.000351 ± 4.9e-05 s⁻¹ | 0.00076 ± 0.00015 s⁻¹ | 2150 ± 940 µM | 0.00169 ± 0.00028 s⁻¹ |
